# Laboratory results as given in the supplement of paper PMC10201428.
# ± gives the standard deviation of the averaged measurements.
# Key:
# [1] = test system: VchCAST RNA-guided transposition machinery (E. coli BL21(DE3) host, lacZ target); assay: relative integration efficiency (T-LR orientation) vs wild-type transposon end (log2 (normalized fold change)); transposon end mutated: right end (5 bp flank + 75 bp right end); higher = more efficient transposition
# Outline: (§1)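 Pools of 1549 left-end or 1849 right-end barcoded transposon variants were cloned into a pUC57 mini-transposon donor and co-transformed into E. coli BL21(DE3) with a T7-driven effector plasmid carrying a CRISPR array, tniQ-cas8-cas7-cas6 and tnsA-tnsB-tnsC. Plating used 0.1 mM IPTG at 37°C for 18 h, and input plasmids and genomic integration junctions were PCR-amplified for Illumina sequencing, with two biological output replicates and four reference barcodes. Relative integration efficiency is the log-transformed fold change of output over input barcode abundance, normalised to the reference barcodes.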
# [2] = test system: VchCAST RNA-guided transposition machinery (E. coli BL21(DE3) host, lacZ target); assay: relative integration efficiency (T-RL orientation) vs wild-type transposon end (log2 (normalized fold change)); transposon end mutated: right end (5 bp flank + 75 bp right end); higher = more efficient transposition
# Outline: as §1
Sequence,relative integration efficiency (log2) [1],relative integration efficiency (log2) [2]
ACATTTGTCGATCCAACCATAAAATGATAATTACACCCATAAATTCATCATTATCACACCCAATTTAACTATAACGCTCTGATCATAGTCAGACCAACATTGCTACGACCCGTATTCGCACCGACAC,1.38 ± 0.015,-2.47 ± 0.39
ACATTTGTCGATCCAACCATAAAATGATAATTACACCCATAAATTGATAATTATCACACCCAATTTAACTATAACGCTCTGATCATAGTCAGACCAACATTGCTACGACCCGTATTCGCACCGACAC,2.2 ± 0.23,-0.969 ± 0.28
ACATTTGTCGATCCAACCATAAAATGATAATTACACCCATAAATTGATCATTATCACACCCAATTTAACTATAACGCTCTGATCATAGTCAGACCAACATTGCTACGACCCGTATTCGCACCGACAC,2.167 ± 0.0082,-1.61 ± 0.25
ACATTTGTGGATACAACCATAAAACGATAATTACACCCATAAATGGATAATTATCACACCCAATTTAACTATAACGCTCTGATCATAGTCAGACCAACATTGCTACGACCCGTATTCGCACCGACAC,1.3 ± 0.17,-1.46 ± 0.2
ACATTTGTGGATACAACCATAAAACGATAATTACACCCATAAATGGATCATTATCACACCCAATTTAACTATAACGCTCTGATCATAGTCAGACCAACATTGCTACGACCCGTATTCGCACCGACAC,0.737 ± 0.25,-1.81 ± 0.3
ACATTTGTGGATACAACCATAAAACGATAATTACACCCATAAATTCATAATTATCACACCCAATTTAACTATAACGCTCTGATCATAGTCAGACCAACATTGCTACGACCCGTATTCGCACCGACAC,0.933 ± 0.13,-2.15 ± 0.21
ACATTTGTGGATACAACCATAAAACGATAATTACACCCATAAATTCATCATTATCACACCCAATTTAACTATAACGCTCTGATCATAGTCAGACCAACATTGCTACGACCCGTATTCGCACCGACAC,1.17 ± 0.22,-2.23 ± 0.37
ACATTTGTGGATACAACCATAAAACGATAATTACACCCATAAATTGATAATTATCACACCCAATTTAACTATAACGCTCTGATCATAGTCAGACCAACATTGCTACGACCCGTATTCGCACCGACAC,2.04 ± 0.26,-1.13 ± 0.22
ACATTTGTGGATACAACCATAAAACGATAATTACACCCATAAATTGATCATTATCACACCCAATTTAACTATAACGCTCTGATCATAGTCAGACCAACATTGCTACGACCCGTATTCGCACCGACAC,2.1 ± 0.088,-1.43 ± 0.24
ACATTTGTGGATACAACCATAAAATGATAATTACACCCATAAATGGATAATTATCACACCCAATTTAACTATAACGCTCTGATCATAGTCAGACCAACATTGCTACGACCCGTATTCGCACCGACAC,2.14 ± 0.031,-0.586 ± 0.33
ACATTTGTGGATACAACCATAAAATGATAATTACACCCATAAATGGATAATTATCACCCCCAATTTAACTATAACGCTCTGATCATAGTCAGACCAACATTGCTACGACCCGTATTCGCACCGACAC,1.55 ± 0.31,-1.15 ± 0.23
ACATTTGTGGATACAACCATAAAATGATAATTACACCCATAAATGGATCATTATCACACCCAATTTAACTATAACGCTCTGATCATAGTCAGACCAACATTGCTACGACCCGTATTCGCACCGACAC,1.01 ± 0.2,-1.53 ± 0.23
ACATTTGTGGATACAACCATAAAATGATAATTACACCCATAAATGGATCATTATCACCCCCAATTTAACTATAACGCTCTGATCATAGTCAGACCAACATTGCTACGACCCGTATTCGCACCGACAC,1.36 ± 0.19,-1.28 ± 0.28
ACATTTGTGGATACAACCATAAAATGATAATTACACCCATAAATGGATTATTATCACACCCAATTTAACTATAACGCTCTGATCATAGTCAGACCAACATTGCTACGACCCGTATTCGCACCGACAC,1.2 ± 0.22,-1.72 ± 0.3
ACATTTGTGGATACAACCATAAAATGATAATTACACCCATAAATTCATAATTATCACACCCAATTTAACTATAACGCTCTGATCATAGTCAGACCAACATTGCTACGACCCGTATTCGCACCGACAC,0.877 ± 0.27,-1.9 ± 0.49
ACATTTGTGGATACAACCATAAAATGATAATTACACCCATAAATTCATAATTATCACCCCCAATTTAACTATAACGCTCTGATCATAGTCAGACCAACATTGCTACGACCCGTATTCGCACCGACAC,1.27 ± 0.13,-1.64 ± 0.37
ACATTTGTGGATACAACCATAAAATGATAATTACACCCATAAATTCATCATTATCACACCCAATTTAACTATAACGCTCTGATCATAGTCAGACCAACATTGCTACGACCCGTATTCGCACCGACAC,1.48 ± 0.12,-2.03 ± 0.49
ACATTTGTGGATACAACCATAAAATGATAATTACACCCATAAATTCATCATTATCACCCCCAATTTAACTATAACGCTCTGATCATAGTCAGACCAACATTGCTACGACCCGTATTCGCACCGACAC,1.385 ± 0.0021,-1.88 ± 0.43

Sequence,relative integration efficiency (log2) [1],relative integration efficiency (log2) [2]
ACATTTGTGGATACAACCATAAAATGATAATTACACCCATAAATTCATTATTATCACACCCAATTTAACTATAACGCTCTGATCATAGTCAGACCAACATTGCTACGACCCGTATTCGCACCGACAC,0.908 ± 0.36,-2.59 ± 0.53
ACATTTGTGGATACAACCATAAAATGATAATTACACCCATAAATTGATAATTATCACCCCCAATTTAACTATAACGCTCTGATCATAGTCAGACCAACATTGCTACGACCCGTATTCGCACCGACAC,2.44 ± 0.065,-0.606 ± 0.13
ACATTTGTGGATACAACCATAAAATGATAATTACACCCATAAATTGATCATTATCACACCCAATTTAACTATAACGCTCTGATCATAGTCAGACCAACATTGCTACGACCCGTATTCGCACCGACAC,1.89 ± 0.19,-1.46 ± 0.31
ACATTTGTGGATACAACCATAAAATGATAATTACACCCATAAATTGATCATTATCACCCCCAATTTAACTATAACGCTCTGATCATAGTCAGACCAACATTGCTACGACCCGTATTCGCACCGACAC,1.99 ± 0.056,-1.27 ± 0.17
ACATTTGTGGATACAACCATAAAATGATAATTACACCCATAAATTTATAATTATCACACCCAATTTAACTATAACGCTCTGATCATAGTCAGACCAACATTGCTACGACCCGTATTCGCACCGACAC,1.8 ± 0.36,-1.09 ± 0.41
ACATTTGTGGATACAACCATAAAATGATAATTACACCCATAAATTTATTATTATCACACCCAATTTAACTATAACGCTCTGATCATAGTCAGACCAACATTGCTACGACCCGTATTCGCACCGACAC,1.47 ± 0.11,-2.14 ± 0.55
ACATTTGTGGATACAACCATAAAATGATAATTACCACCCATAAATTGATAATTATCACACCCATTTAACTATAACGCTCTGATCATAGTCAGACCAACATTGCTACGACCCGTATTCGCACCGACAC,1.54 ± 0.083,-1.11 ± 0.24
ACATTTGTGGATACAACCATAAAATGATAATTACCACCCATACATTGATAATTATCACACCCATTTAACTATAACGCTCTGATCATAGTCAGACCAACATTGCTACGACCCGTATTCGCACCGACAC,-0.296 ± 0.095,-2.53 ± 0.19
ACATTTGTGGATACAACCATAAAATGATAATTACCACCCCTAAATTGATAATTATCACACCCATTTAACTATAACGCTCTGATCATAGTCAGACCAACATTGCTACGACCCGTATTCGCACCGACAC,-0.51 ± 0.037,-2.781 ± 0.006
ACATTTGTGGATACAACCATAAAATGATAATTACCACCCCTACATTGATAATTATCACACCCATTTAACTATAACGCTCTGATCATAGTCAGACCAACATTGCTACGACCCGTATTCGCACCGACAC,-0.503 ± 0.055,-3.07 ± 0.21
ACATTTGTGGATACAACCATAAAATGATAATTCACCCATAAATTGATAATTATCACACCCCAATTTAACTATAACGCTCTGATCATAGTCAGACCAACATTGCTACGACCCGTATTCGCACCGACAC,1.23 ± 0.028,-1.92 ± 0.17
ACATTTGTGGATACAACCATAAAATGATAATTCACCCATCAATTGATAATTATCACACCCCAATTTAACTATAACGCTCTGATCATAGTCAGACCAACATTGCTACGACCCGTATTCGCACCGACAC,0.328 ± 0.26,-2.89 ± 0.38
ACATTTGTGGATACAACCCTAAAATGATAATTACACCCATAAATGGATAATTATCACACCCAATTTAACTATAACGCTCTGATCATAGTCAGACCAACATTGCTACGACCCGTATTCGCACCGACAC,-0.593 ± 0.47,-3.64 ± 0.39
ACATTTGTGGATACAACCCTAAAATGATAATTACACCCATAAATGGATAATTATCACCCCCAATTTAACTATAACGCTCTGATCATAGTCAGACCAACATTGCTACGACCCGTATTCGCACCGACAC,-1.16 ± 0.27,-3.8 ± 0.4
ACATTTGTGGATACAACCCTAAAATGATAATTACACCCATAAATGGATCATTATCACACCCAATTTAACTATAACGCTCTGATCATAGTCAGACCAACATTGCTACGACCCGTATTCGCACCGACAC,-1.6 ± 0.071,-3.94 ± 0.38
ACATTTGTGGATACAACCCTAAAATGATAATTACACCCATAAATGGATCATTATCACCCCCAATTTAACTATAACGCTCTGATCATAGTCAGACCAACATTGCTACGACCCGTATTCGCACCGACAC,-1.88 ± 0.26,-4.36 ± 0.35
ACATTTGTGGATACAACCCTAAAATGATAATTACACCCATAAATTCATAATTATCACACCCAATTTAACTATAACGCTCTGATCATAGTCAGACCAACATTGCTACGACCCGTATTCGCACCGACAC,-2.97 ± 0.11,-5.07 ± 0.49
